Measurements published in article PMC8908270, “Multimodal regulation of myosin VI ensemble transport by cargo adaptor protein GIPC” (The Journal of Biological Chemistry, 2022).
Blank lines part the entries; values can stand above or below the molecule they belong to.

B1: GIPC MIR, C-terminal SNAP-tagged (domain or fragment, human, UniProt O14908 261-333, looked up)
chain: EEKAIEKVDDLLESYMGIRDTELAATMVELGKDKRNPDELAEALDERLGDFAFPDEFVFDVWGAIGDAKVGRY
modifications: benzylguanine-labeled DNA oligo on the SNAP tag (DNA origami scaffold assay)
B2: Myosin VI FL-SNAP (natural protein, human, UniProt Q9UM54 1-1294, looked up)
chain: MEDGKPVWAPHPTDGFQMGNIVDIGPDSLTIEPLNQKGKTFLALINQVFPAEEDSKKDVEDNCSLMYLNEATLLHNIKVRYSKDRIYTYVANILIAVNPYFDIPKIYSSEAIKSYQGKSLGTRPPHVFAIADKAFRDMKVLKMSQSIIVSGESGAGKTENTKFVLRYLTESYGTGQDIDDRIVEANPLLEAFGNAKTVRNNNSSRFGKFVEIHFNEKSSVVGGFVSHYLLEKSRICVQGKEERNYHIFYRLCAGASEDIREKLHLSSPDNFRYLNRGCTRYFANKETDKQILQNRKSPEYLKAGSMKDPLLDDHGDFIRMCTAMKKIGLDDEEKLDLFRVVAGVLHLGNIDFEEAGSTSGGCNLKNKSAQSLEYCAELLGLDQDDLRVSLTTRVMLTTAGGTKGTVIKVPLKVEQANNARDALAKTVYSHLFDHVVNRVNQCFPFETSSYFIGVLDIAGFEYFEHNSFEQFCINYCNEKLQQFFNERILKEEQELYQKEGLGVNEVHYVDNQDCIDLIEAKLVGILDILDEENRLPQPSDQHFTSAVHQKHKDHFRLTIPRKSKLAVHRNIRDDEGFIIRHFAGAVCYETTQFVEKNNDALHMSLESLICESRDKFIRELFESSTNNNKDTKQKAGKLSFISVGNKFKTQLNLLLDKLRSTGASFIRCIKPNLKMTSHHFEGAQILSQLQCSGMVSVLDLMQGGYPSRASFHELYNMYKKYMPDKLARLDPRLFCKALFKALGLNENDYKFGLTKVFFRPGKFAEFDQIMKSDPDHLAELVKRVNHWLTCSRWKKVQWCSLSVIKLKNKIKYRAEACIKMQKTIRMWLCKRRHKPRIDGLVKVGTLKKRLDKFNEVVSVLKDGKPEMNKQIKNLEISIDTLMAKIKSTMMTQEQIQKEYDALVKSSEELLSALQKKKQQEEEAERLRRIQEEMEKERKRREEDEKRRRKEEEERRMKLEMEAKRKQEEEERKKREDDEKRIQAEVEAQLARQKEEESQQQAVLEQERRDRELALRIAQSEAELISDEAQADLALRRSLDSYPVSKNDGTRPKMTPEQMAKEMSEFLSRGPAVLATKAAAGTKKYDLSKWKYAELRDTINTSCDIELLAACREEFHRRLKVYHAWKSKNKKRNTETEQRAPKSVTDYDFAPFLNNSPQQNPAAQIPARQREIEMNRQQRFFRIPFIRPADQYKDPQSKKKGWWYAHFDGPWIARQMELHPDKPPILLVAGKDDMEMCELNLEETGLTRKRGAEILPRQFEEIWERCGGIQYLQNAIESRQARPTYATAMLQSLLK
modifications: Cy3-conjugated (single-molecule TIRF assay); benzylguanine-labeled DNA oligo on the SNAP tag (nanotube and origami assays)

Experiments:
[1] = biological target: mCerulean (mCer)-tagged myosin VI CBD (human) (UniProt Q9UM54); assay: FRET or BRET; bimolecular FRET in solution; CBD-mCer held constant at 30 nM, increasing GIPC MIR–mCit titrated; excitation 430 nm; ΔFRET fit to a hyperbolic dose–response; three protein preparations
Myosin VI FL-SNAP = biological target: B2; assay: cell-based or functional assay
[2] = biological target: B1; assay: cell-based or functional assay

Kd [1]: 120 nM
Molecule: mCitrine (mCit)-tagged GIPC MIR (from UniProt O14908 261-333) (domain or fragment)

Molecule: B1
actin gliding speed in the DNA nanotube assay (Myosin VI FL-SNAP patterned at 14 or 28 nm spacing), with 2 μM GIPC MIR against without (Myosin VI FL-SNAP): 2.5 fold

Molecule: B2
speed of DNA origami scaffolds on single actin filaments, myosin VI recruited through GIPC MIR against direct attachment [2]: 2.3 fold
